Reference: US20240409983A1 (published 2024)

Tests used:
6162-B78-8_MAM02-008 = assay: NGS-count immunoassay, capture antibody titration; average Kd; antibody pair
6162-H85-2t_6162-F78-2 = assay: as above
401-01R_6162-C57-1 = assay: NGS-count immunoassay, capture antibody titration, single-site binding fit; average Kd; antibody pair

B1: Analyte (other)
chain: KLTIESTPFNVAEGKEVLLLVHNLPQHLFGYSWYKGERVDGNRQIIGYVIGTQQATPGPAYSGREIIYPNASLLIQNIIQNDTGFYTLHVIKSDLVNEEATGQFRVYPELPKPSISSNNSKPVEDKDAVAFTCEPETQDATYLWWVNNQSLPVSPRLQLSNGNRTLTLFNVTRNDTASYKCETQNPVSARRSDSVILNVLYGPDAPTISPLNTSYRSGENLNLSCHAASNPPAQYSWFVNGTFQQSTQELFIPNITVNNSGSYTCQAHNSDTGLNRTTVTTITVYAEPPKPFITSNNSNPVEDEDAVALTCEPEIQNTTYLWWVNNQSLPVSPRLQLSNDNRTLTLLSVTRNDVGPYECGIQNELSVDHSDPVILNVLYGPDDPTISPSYTYYRPGVNLSLSCHAASNPPAQYSWLIDGNIQQHTQELFISNITEKNSGLYTCQANNSASGHSRTTVKTITVSAELPKPSISSNNSKPVEDKDAVAFTCEPEAQNTTYLWWVNGQSLPVSPRLQLSNGNRTLTLFNVTRNDARAYVCGIQNSVSANRSDPVTLDVLYGPDTPIISPPDSSYLSGANLNLSCHSASNPSPQYSWRINGIPQQHTQVLFIAKITPNNNGTYACFVSNLATGRNNSIVKSITVSASGTSPGLSA
Kd (6162-B78-8_MAM02-008): 1940 pM | Kd (6162-H85-2t_6162-F78-2): 352 pM | Kd (401-01R_6162-C57-1): 906 pM
